Measurements taken from paper PMC5772613, “Phosphorylation induced cochaperone unfolding promotes kinase recruitment and client class-specific Hsp90 phosphorylation” (Nature Communications, 2018).
Square brackets hold non-standard residues; d marks the D form. Ends that are not written are not given here. pY = N[C@@H](Cc1ccc(OP(=O)(O)O)cc1)C(=O)O

Tests used:
Details in all cases: both partners purified
Full-length Hsp90β [1] = biological target: T1, Full-length Hsp90β (UniProt P08238 1-724); test: ITC; cochaperone Cdc37 (~300-400 μM, syringe) titrated into Hsp90β variants (~20-30 μM, cell); 25 °C; 20 mM Tris, 100 mM NaCl, 0.5 mM EDTA, 1 mM TCEP; single binding site model
T1 construct: Hsp90β (printed as full-length Hsp90αβ1), in pET28; also called Hsp90αβ1

Full-length Hsp90β [2] = biological target: T1, Full-length Hsp90β; test: SEC; analytical, Biorad Enrich SEC 650, 4 °C; 20 mM Tris pH 7.5, 100 mM NaCl, 0.5 mM EDTA, 2 mM DTT; binary mixtures 1:1 and ternary mixtures Hsp90:Cdc37:bRaf 2:1:1, incubated 15 min at 4 °C
SH2 domain of Yes = biological target: T2, SH2 domain of Yes (UniProt P07947 158-255); test: ITC; phosphopeptide (600-750 μM, syringe) titrated into SH2 domain (50-60 μM, cell); 25 °C; 20 mM Tris, 100 mM NaCl, 0.5 mM EDTA, 1 mM TCEP; single binding site model
T2 construct: Yes, SH2 domain; Gift of Bruce Mayer (pGEX); 15N-labelled for NMR; also called Yes^SH2; SH2^Yes; source: E. coli BL21(DE3), purified (GST column, PreScission cleavage, second GST column, Superdex 75); not shown: GST, N-terminal, cleaved
T2 sequence (P07947 158-255): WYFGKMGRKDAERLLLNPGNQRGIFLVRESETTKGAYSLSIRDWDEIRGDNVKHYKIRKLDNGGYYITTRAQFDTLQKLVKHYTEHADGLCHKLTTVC

T1 sequence (P08238 whole entry): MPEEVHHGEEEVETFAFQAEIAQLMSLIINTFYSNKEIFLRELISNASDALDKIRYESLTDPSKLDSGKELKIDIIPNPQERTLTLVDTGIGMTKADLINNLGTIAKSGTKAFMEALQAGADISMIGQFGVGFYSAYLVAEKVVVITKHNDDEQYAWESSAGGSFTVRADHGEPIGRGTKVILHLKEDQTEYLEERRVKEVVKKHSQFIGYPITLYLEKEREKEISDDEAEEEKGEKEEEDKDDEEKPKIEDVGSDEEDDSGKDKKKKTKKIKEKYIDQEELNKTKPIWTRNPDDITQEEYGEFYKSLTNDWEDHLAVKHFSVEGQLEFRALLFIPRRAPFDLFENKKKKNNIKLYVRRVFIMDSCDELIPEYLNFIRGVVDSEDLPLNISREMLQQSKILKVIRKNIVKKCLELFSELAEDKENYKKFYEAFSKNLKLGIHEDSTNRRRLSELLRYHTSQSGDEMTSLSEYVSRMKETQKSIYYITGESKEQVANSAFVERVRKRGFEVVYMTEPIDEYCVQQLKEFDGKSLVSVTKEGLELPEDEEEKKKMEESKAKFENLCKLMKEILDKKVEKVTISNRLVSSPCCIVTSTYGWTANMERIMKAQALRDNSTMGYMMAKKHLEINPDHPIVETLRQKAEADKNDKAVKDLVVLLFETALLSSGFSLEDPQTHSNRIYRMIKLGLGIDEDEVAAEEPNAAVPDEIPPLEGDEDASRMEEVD

Binder	binding result (Full-length Hsp90β [2])	also measured
Full-length human Cdc37 (natural protein, UniProt Q16543 1-378, looked up, Cdc37 (p50), human, full length; isotope-labelled in some NMR samples; also called p50; wild-type Cdc37) MVDYSVWDHIEVSDDEDETHPNIDTASLFRWRHQARVERMEQFQKEKEELDRGCRECKRKVAECQRKLKELEVAEGGKAELERLQAEAQQLRKEERSWEQKLEEMRKKEKSMPWNVDTLSKDGFSKSMVNTKPEKTEEDSEEVREQKHKTFVEKYEKQIKHFGMLRRWDDSQKYLSDNVHLVCEETANYLVIWCIDLEVEEKCALMEQVAHQTIVMQFILELAKSLKVDPRACFRQFFTKIKTADRQYMEGFNDELEAFKERVRGRAKLRIEKAMKEYEEEERKKRLGPGGLDPVEVYESLPEELQKCFDVKDVQMLQDAISKMDPTDAKYHMQRCIDSGLWVPNSKASEAKEGEEAGPGDPLLEAVPKTGDEKDVSV		binding result (Full-length Hsp90β [1]): binds
Full-length Cdc37 carrying the phosphomimetic mutation Y298E (natural protein, human, UniProt Q16543 1-378, looked up, Cdc37 (p50), human, full length, point mutant; Point mutants made by QuikChange; Methyl-labelled for the NMR sample with Hsp90α; also called Cdc37^Y298E) MVDYSVWDHIEVSDDEDETHPNIDTASLFRWRHQARVERMEQFQKEKEELDRGCRECKRKVAECQRKLKELEVAEGGKAELERLQAEAQQLRKEERSWEQKLEEMRKKEKSMPWNVDTLSKDGFSKSMVNTKPEKTEEDSEEVREQKHKTFVEKYEKQIKHFGMLRRWDDSQKYLSDNVHLVCEETANYLVIWCIDLEVEEKCALMEQVAHQTIVMQFILELAKSLKVDPRACFRQFFTKIKTADRQYMEGFNDELEAFKERVRGRAKLRIEKAMKEYEEEERKKRLGPGGLDPVEVEESLPEELQKCFDVKDVQMLQDAISKMDPTDAKYHMQRCIDSGLWVPNSKASEAKEGEEAGPGDPLLEAVPKTGDEKDVSV	binds	
Cdc37 single phosphomimetic mutant Y4E (natural protein, human, UniProt Q16543 1-378, looked up, Cdc37 (p50), human, point mutant of the full-length construct; also called Cdc37^Y4E) MVDESVWDHIEVSDDEDETHPNIDTASLFRWRHQARVERMEQFQKEKEELDRGCRECKRKVAECQRKLKELEVAEGGKAELERLQAEAQQLRKEERSWEQKLEEMRKKEKSMPWNVDTLSKDGFSKSMVNTKPEKTEEDSEEVREQKHKTFVEKYEKQIKHFGMLRRWDDSQKYLSDNVHLVCEETANYLVIWCIDLEVEEKCALMEQVAHQTIVMQFILELAKSLKVDPRACFRQFFTKIKTADRQYMEGFNDELEAFKERVRGRAKLRIEKAMKEYEEEERKKRLGPGGLDPVEVYESLPEELQKCFDVKDVQMLQDAISKMDPTDAKYHMQRCIDSGLWVPNSKASEAKEGEEAGPGDPLLEAVPKTGDEKDVSV	binds	
Cdc37 double-phosphomimetic mutant Y4E/Y298E (natural protein, human, UniProt Q16543 1-378, looked up, Cdc37 (p50), human, double point mutant of the full-length construct; also called Cdc37^EE; C^EE) MVDESVWDHIEVSDDEDETHPNIDTASLFRWRHQARVERMEQFQKEKEELDRGCRECKRKVAECQRKLKELEVAEGGKAELERLQAEAQQLRKEERSWEQKLEEMRKKEKSMPWNVDTLSKDGFSKSMVNTKPEKTEEDSEEVREQKHKTFVEKYEKQIKHFGMLRRWDDSQKYLSDNVHLVCEETANYLVIWCIDLEVEEKCALMEQVAHQTIVMQFILELAKSLKVDPRACFRQFFTKIKTADRQYMEGFNDELEAFKERVRGRAKLRIEKAMKEYEEEERKKRLGPGGLDPVEVEESLPEELQKCFDVKDVQMLQDAISKMDPTDAKYHMQRCIDSGLWVPNSKASEAKEGEEAGPGDPLLEAVPKTGDEKDVSV	binds	
EV[pY]ESLPEEL (Cdc37, residues 296-305; also called phosphopeptide; source: synthetic peptide (GL Biochem)) [Phosphotyrosine-modified decapeptide EVpYESLPEEL of Cdc37 (residues 296-305)]		Kd (SH2 domain of Yes): 410 nM
